Measured values taken from patent US20230192896A1 (BIOVERATIV THERAPEUTICS, published 2023).
Numbering of substitutions follows the chain as printed.

B1: BIIB-9-475 (antibody, V domains shown)
VH: QVQLQESGPGLVKPSETLSLTCTVSGGSISSYYWSWIRQPPGKGLEWIGSIYYSGSTNYNPSLKSRVTISVDTSKNQFSLKLSSVTAADTAVYYCARDVGGYDYGVGAFDIWGQGTMVTVSS
VL: DIQMTQSPSSLSASVGDRVTITCQASQDITNYLNWYQQKPGKAPKLLIYDASNLETGVPSRFSGSGSGTDFTFTISSLQPEDIATYYCQQSSNFPLTFGGGTKVEIK
notes: IgG
B2: BIIB-9-883 (antibody, V domains shown)
VH: QVQLVQSGAEVKKPGASVKVSCKASGYTFTSYYMHWVRQAPGQGLEWMGIINPSGGSTSYAQKFQGRVTMTRDTSTSTVYMELSSLRSEDTAVYYCARDGRLSYTWDRWGQGTLVTVSS
VL: B1 VL with S91A, S92D, N93H, L96F
notes: IgG
B3: BIIB-9-477 (antibody, V domains shown)
VH: EVQLLESGGGLVQPGGSLRLSCAASGFTFSNYAMSWVRQAPGKGLEWVSAISGSGGSTYYADSVKGRFTISRDNSKNTLYLQMNSLRAEDTAVYYCARGGVYSSSWMRFWGQGTLVTVSS
VL: EIVMTQSPATLSVSPGERATLSCRASQSVSSSLAWYQQKPGQAPRLLIFGASTRATGIPARFSGSGSGTEFTLTISSLQSEDFAVYYCQQDVNWPITFGGGTKVEIK
notes: IgG
B4: BIIB-9-588 (antibody, V domains shown)
VH: QVQLVQSGAEVKKPGASVKVSCKASGYTFTSYYMHWVRQAPGQGLEWMGIINPSGGSTTYAQKFQGRVTMTRDTSTSTVYMELSSLRSEDTAVYYCARDGGGSYDYWSGYWYDVWGQGTTVTVSS
VL: B3 VL with S32N, F49Y, D91A, V92Y, I96F
notes: IgG
B5: BIIB-9-611 (antibody, V domains shown)
VH: QVQLVQSGAEVKKPGASVKVSCKASGYTFTSYYMHWVRQAPGQGLEWMGIINPSGGSTSYAQKFQGRVTMTRDTSTSTVYMELSSLRSEDTAVYYCAREVISRVSYFDLWGRGTLVTVSS
VL: B3 VL with S32N, F49Y, V92N, N93I, W94H, I96Y
notes: IgG
B6: BIIB-9-469 (antibody, V domains shown)
VH: QVQLVQSGAEVKKPGASVKVSCKASGYTFTSYYMHWVRQAPGQGLEWMGIINPSGGSTSYAQKFQGRVTMTRDTSTSTVYMELSSLRSEDTAVYYCARDLGYGRSYDFDLWGRGTLVTVSS
VL: B3 VL with S32N, D91S, V92N, W94F, I96F
notes: IgG
B7: BIIB-9-460 (antibody, V domains shown)
VH: QVQLVQSGAEVKKPGASVKVSCKASGYTFTSYYMHWVRQAPGQGLEWMGIINPSGGSTSYAQKFQGRVTMTRDTSTSTVYMELSSLRSEDTAVYYCARDISTDGESSLYYYMDVWGKGTTVTVSS
VL: B3 VL with S32N, F49Y, D91H, V92D, W94F, I96F
notes: IgG
B8: BIIB-9-461 (antibody, V domains shown)
VH: QVQLVQSGAEVKKPGASVKVSCKASGYTFTSYYMHWVRQAPGQGLEWMGIINPSGGSTSYAQKFQGRVTMTRDTSTSTVYMELSSLRSEDTAVYYCARGPTDSSGYLDMDVWGKGTTVTVSS
VL: B3 VL with F49Y, D91H, V92H, N93H, I96P
notes: IgG
B9: BIIB-9-425 (antibody, V domains shown)
VH: QVQLVQSGAEVKKPGASVKVSCKASGYTFTSYYMHWVRQAPGQGLEWMGIINPSGGSTSYAQKFQGRVTMTRDTSTSTVYMELSSLRSEDTAVYYCAREPTWDVAYDYWGQGTLVTVS
VL: EIVLTQSPGTLSLSPGERATLSCRASQSVSSDYLAWYQQKPGQAPRLLIYGASSRATGIPDRFSGSGSGTDFTLTISRLEPEDFAVYYCQQYDSHPYTFGGGTKVEIK
notes: IgG
B10: BIIB-9-440 (antibody, V domains shown)
VH: QLQLQESGPGLVKPSETLSLTCTVSGGSISSSDYYWGWIRQPPGKGLEWIGSIYYSGSTYYNPSLKSRVTISVDTSKNQFSLKLSSVTAADTAVYYCARSPRHKVRGPNWFDPWGQGTLVTVSS
VL: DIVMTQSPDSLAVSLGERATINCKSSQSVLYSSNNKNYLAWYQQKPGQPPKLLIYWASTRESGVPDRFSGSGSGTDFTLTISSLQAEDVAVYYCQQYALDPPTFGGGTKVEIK
notes: IgG
B11: BIIB-9-605 (antibody, V domains shown)
VH: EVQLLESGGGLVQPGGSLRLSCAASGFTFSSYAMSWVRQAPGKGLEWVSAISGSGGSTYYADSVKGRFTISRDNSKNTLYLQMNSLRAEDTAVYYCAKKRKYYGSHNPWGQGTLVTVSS
VL: DIQMTQSPSSVSASVGDRVTITCRASQGISSWLAWYQQKPGKAPKLLIYAASSLQSGVPSRFSGSGSGTDFTLTISSLQPEDFATYYCQQADVFPFTFGGGTKVEIK
notes: IgG
B12: BIIB-9-564 (antibody, V domains shown)
VH: QVQLQESGPGLVKPSETLSLTCAVSGYSISSGYYWAWIRQPPGKGLEWIGSIYHSGSTYYNPSLKSRVTISVDTSKNQFSLKLSSVTAADTAVYYCARDPGYSWEYFDYWGQGTLVTVSS
VL: B11 VL with V11L, G28S, W32Y, A34N, A91S, D92V, V93A, F94V, F96P
notes: IgG; also called BIB-4-564
B13: BIIB-9-415 (antibody, V domains shown)
VH: B5 VH with E99D, V100G, I101L, R103S, V104G, S105Y, F107W, L109N, R112Q
VL: B11 VL with S30D, A91G, V93A
notes: IgG
B14: BIIB-9-480 (antibody, V domains shown)
VH: QVQLQESGPGLVKPSETLSLTCAVSGYSISSGYYWGWIRQPPGKGLEWIGSSYHSGSTYYNPSLKSRVTISVDTSKNQFSLKLSSVTAADTAVYYCARDQQDYGAFDIWGQGTMVTVSS
VL: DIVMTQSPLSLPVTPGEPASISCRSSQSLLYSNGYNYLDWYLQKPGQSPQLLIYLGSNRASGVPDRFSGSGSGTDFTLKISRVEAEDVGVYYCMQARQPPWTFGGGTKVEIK
notes: IgG
B15: BIIB-9-626 (antibody, V domains shown)
VH: B5 VH with I50V, E99D, V100L, I101Q, S102Y, R103S, V104M, S105T, L109Y, R112Q
VL: DIQMTQSPSTLSASVGDRVTITCRASQSISSWLAWYQQKPGKAPKLLIYKASSLESGVPSRFSGSGSGTEFTLTISSLQPDDFATYYCQQDGSYPPLTFGGGTKVEIK
notes: IgG
B16: BIIB-9-619 (antibody, V domains shown)
VH: QVQLVQSGAEVKKPGASVKVSCKASGYTFTSYYMHWVRQAPGQGLEWMGIINPSGGSTSYAQKFQGRVTMTRDTSTSTVYMELSSLRSEDTAVYYCARDGPRVSDYYMDVWGKGTTVTVSS
VL: EIVLTQSPATLSLSPGERATLSCRASQSVSSYLAWYQQKPGQAPRLLIYDASNRATGIPARFSGSGSGTDFTLTISSLEPEDFAVYYCQQRDNWPFTFGGGTKVEIK
notes: IgG
B17: BIIB-9-419 (antibody, V domains shown)
VH: QVQLVQSGAEVKKPGASVKVSCKASGYTFTSYYMHWVRQAPGQGLEWMGIINPSGGSTSYAQKFQGRVTMTRDTSTSTVYMELSSLRSEDTAVYYCAREPTFYASYFDLWGRGTLVTVS
VL: B16 VL with L4M, A51S, R91V, D92S, N93T, W94H, F96Y
notes: IgG
B18: BIIB-9-473 (antibody, V domains shown)
VH: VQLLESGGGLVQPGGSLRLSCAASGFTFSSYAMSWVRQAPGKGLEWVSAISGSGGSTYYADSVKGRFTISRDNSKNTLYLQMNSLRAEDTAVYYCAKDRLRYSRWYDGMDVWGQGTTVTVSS
VL: B16 VL with D92S, N93F, W94L, F96Y
notes: IgG
B19: BIIB-9-479 (antibody, V domains shown)
VH: QVQLQESGPGLVKPSETLSLTCTVSGGSISSYYWSWIRQPPGKGLEWIGSIYYSGSTNYNPSLKSRVTISVDTSKNQFSLKLSSVTAADTAVYYCAREHYGDYPLFDIWGQGTMVTVSS
VL: DIQMTQSPSTLSASVGDRVTITCRASQSISSWLAWYQQKPGKAPKLLIYKASSLESGVPSRFSGSGSGTEFTLTISSLQPDDFATYYCQQYRILSPTFGGGTKVEIK
notes: IgG
B20: BIIB-9-465 (antibody, V domains shown)
VH: B2 VH with H35V, D99S, G100P, R101T, L102D, S103G, T105Y, W106F, R108L, Q111R
VL: B19 VL with S30N, Y49S, K50D, R92E, L94F, S95P, P96F
notes: IgG
B21: BIIB-9-558 (antibody, V domains shown)
VH: EVQLVESGGGLVKPGGSLRLSCAASGFTFSSYSMNWVRQAPGKGLEWVSSISSSSSYIYYADSVKGRFTISRDNAKNSLYLQMNSLRAEDTAVYYCARSYGYGYHDFDLWGRGTLVTVSS
VL: B19 VL with S30G, Y91A, R92G, I93S, L94Y, P96F
notes: IgG
B22: BIIB-9-567 (antibody, V domains shown)
VH: B8 VH with G99L, P100G, T101R, D102R, S103Y, S104Y, G105A, L107D, D108G, K114Q
VL: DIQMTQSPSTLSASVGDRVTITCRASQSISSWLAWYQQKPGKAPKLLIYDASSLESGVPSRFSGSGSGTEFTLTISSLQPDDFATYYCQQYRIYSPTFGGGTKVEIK
notes: IgG
B23: BIIB-9-451 (antibody, V domains shown)
VH: QLQLQESGPGLVKPSETLSLTCTVSGGSISSSSYYWGWIRQPPGKGLEWIGSISYSGSTYYNPSLKSRVTISVDTSKNQFSLKLSSVTAADTAVYYCARDSGGYYYQGFDYWGQGTLVTVSS
VL: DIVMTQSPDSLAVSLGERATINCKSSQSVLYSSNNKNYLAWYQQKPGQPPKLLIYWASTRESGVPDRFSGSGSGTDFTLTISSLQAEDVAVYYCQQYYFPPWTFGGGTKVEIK
notes: IgG

Target: T1, FIXa-SM (FIXa+EGR-CMK) (human, UniProt P00740 47-191; P00740 227-461, EGR-CMK (L-Glu-Gly-Arg chloromethyl ketone) covalently bound to the active site)
T1 construct: BLI antigen bought from Haematologic Technologies (HCIXA-EGR); also called FIXa with substrate mimic
Test: BLI; class meaning: paragraph 914

Binding result, binds:
B1
B2
B3
B4
B5
B6
B7
B8
B9
B10
B11
B12
B13
B14
B15
B16
B17
B18
B19
B20
B21
B22
B23
